PMC2191588

Molecular target: TCR beta proteins on normal splenic CD4+ T cells (mouse (endogenous in splenic CD4+ T cells))
Experiment: flow cytometry on cells

“CD3 epsilon (from UniProt P22646 22-189) (natural protein)” was tested. Which stoichiometry N (CD3e per TCR beta) did it give?
Its stoichiometry N (CD3e per TCR beta) is 2.
